Assays:
ZCCHC11 = biological target: T1, ZCCHC11 (Homo sapiens, UniProt Q5TAX3); test: Screening assay for ZCCHC poly(U) polymerase inhibitors: in vitro uridylation of 5'-end-labeled pre-let-7; assay type: biochemical
T1 construct: expressed in transfected cells; host or cells: HEK293T
Method: HEK293T cells were transfected with pHA-FLAG-ZCCHC11. After 48 hrs cells were lysed. 50 μl of the supernatant was incubated with 5 μl of pre-washed anti-FLAG antibody conjugated to agarose beads (Sigma) and incubated for 2 hrs at 4° C. Agarose-beads were washed twice with lysis buffer and twice with buffer D. For in vitro uridylation, agarose beads were incubated in a 30 μl reaction containing 3.2 mM of MgCl2, 1 mM of DTT and 0.25 mM of rUTP, 5 mM of test compound and 5′-end-labeled pre-let-7 of 1×10^4-1×10^5 cpm, for 20 min at 37° C. RNA was purified by Trizol extraction and isopropanol precipitated. Reactions were analysed in a 12% urea polyacrylamide gel.

[1] = biological target: T2, LIN-28 (GST-LIN-28) (Caenorhabditis elegans) (UniProt P92186); test: EMSA; details: estimated; 50 mM Tris pH 7.6, 100 mM NaCl, 5 mM MgOAc2, tRNA competitor, room temperature
T2 sequence: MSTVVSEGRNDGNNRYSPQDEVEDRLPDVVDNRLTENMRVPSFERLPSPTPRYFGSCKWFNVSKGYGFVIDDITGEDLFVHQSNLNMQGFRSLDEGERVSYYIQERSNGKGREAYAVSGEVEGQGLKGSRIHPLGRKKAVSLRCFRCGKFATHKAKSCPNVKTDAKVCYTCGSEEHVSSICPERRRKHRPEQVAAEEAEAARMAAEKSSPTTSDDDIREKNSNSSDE

[2] = system: recombinant GST-LIN-28 (C. elegans LIN-28 fused to glutathione-S-transferase) [GST: P08515]
recombinant GST-LIN-28 (C. elegans LIN-28 fused to glutathione-S-transferase) [GST: P08515], sequence (P08515 whole entry, looked up, the tested form may be a part): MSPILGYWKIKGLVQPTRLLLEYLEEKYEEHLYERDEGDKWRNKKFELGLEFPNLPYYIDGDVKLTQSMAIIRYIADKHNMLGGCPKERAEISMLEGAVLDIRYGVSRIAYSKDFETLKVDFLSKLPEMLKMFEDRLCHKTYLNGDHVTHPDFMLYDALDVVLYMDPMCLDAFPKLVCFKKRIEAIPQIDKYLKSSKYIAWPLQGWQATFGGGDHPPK

T1 sequence (Q5TAX3 whole entry): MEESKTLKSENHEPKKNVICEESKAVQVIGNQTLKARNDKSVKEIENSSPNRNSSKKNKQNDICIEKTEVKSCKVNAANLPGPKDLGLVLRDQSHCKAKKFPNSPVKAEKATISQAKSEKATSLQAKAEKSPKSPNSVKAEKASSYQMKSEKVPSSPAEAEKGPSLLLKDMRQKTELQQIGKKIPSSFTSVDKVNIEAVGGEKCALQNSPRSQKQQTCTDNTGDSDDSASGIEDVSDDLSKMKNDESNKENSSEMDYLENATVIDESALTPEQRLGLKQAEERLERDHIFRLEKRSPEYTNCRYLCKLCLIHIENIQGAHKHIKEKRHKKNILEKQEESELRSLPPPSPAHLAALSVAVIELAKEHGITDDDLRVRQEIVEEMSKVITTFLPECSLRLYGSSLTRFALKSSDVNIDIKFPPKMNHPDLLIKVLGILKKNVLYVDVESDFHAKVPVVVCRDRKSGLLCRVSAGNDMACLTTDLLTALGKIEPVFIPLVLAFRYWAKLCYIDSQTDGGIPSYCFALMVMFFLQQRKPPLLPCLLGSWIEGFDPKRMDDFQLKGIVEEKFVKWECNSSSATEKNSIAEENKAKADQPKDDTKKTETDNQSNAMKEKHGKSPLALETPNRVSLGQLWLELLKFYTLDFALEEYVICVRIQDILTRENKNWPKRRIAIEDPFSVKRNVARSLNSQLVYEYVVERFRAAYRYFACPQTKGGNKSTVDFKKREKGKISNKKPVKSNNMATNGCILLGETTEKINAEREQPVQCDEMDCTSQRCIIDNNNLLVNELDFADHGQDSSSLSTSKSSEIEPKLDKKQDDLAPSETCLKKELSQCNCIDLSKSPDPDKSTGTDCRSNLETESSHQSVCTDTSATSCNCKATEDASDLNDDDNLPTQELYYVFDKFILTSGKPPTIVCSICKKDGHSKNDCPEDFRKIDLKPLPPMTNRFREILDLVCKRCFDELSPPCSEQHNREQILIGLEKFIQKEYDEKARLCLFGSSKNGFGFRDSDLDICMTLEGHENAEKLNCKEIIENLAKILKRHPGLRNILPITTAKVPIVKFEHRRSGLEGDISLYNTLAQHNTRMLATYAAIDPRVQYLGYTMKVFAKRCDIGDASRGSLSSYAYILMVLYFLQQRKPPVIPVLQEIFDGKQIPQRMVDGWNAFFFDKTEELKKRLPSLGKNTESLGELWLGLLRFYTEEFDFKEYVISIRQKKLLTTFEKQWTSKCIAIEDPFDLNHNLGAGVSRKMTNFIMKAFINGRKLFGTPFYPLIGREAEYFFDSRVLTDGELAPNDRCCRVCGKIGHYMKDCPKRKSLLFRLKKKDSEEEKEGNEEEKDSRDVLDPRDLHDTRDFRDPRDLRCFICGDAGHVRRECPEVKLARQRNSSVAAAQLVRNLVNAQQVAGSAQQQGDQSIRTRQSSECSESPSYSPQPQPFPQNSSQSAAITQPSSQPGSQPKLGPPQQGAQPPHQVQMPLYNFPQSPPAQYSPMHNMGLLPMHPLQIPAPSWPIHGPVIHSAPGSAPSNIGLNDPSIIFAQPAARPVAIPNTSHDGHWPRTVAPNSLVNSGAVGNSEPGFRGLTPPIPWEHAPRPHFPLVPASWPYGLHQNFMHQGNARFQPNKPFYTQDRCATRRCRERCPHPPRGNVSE

In the case of “uridine 5′-diphosphoglucuronic acid (UDP-GlcA) [compound 1]”, the “uridylation activity of FLAG immunoprecipitates of ZCCHC11” value (ZCCHC11; FLAG immunoprecipitates, 5 mM of test compound, 20 min at 37° C., FIG. 15b) is reported as “reduces the uridylation activity” and the “uridylation activity of whole cell extracts (endogenous and HA-FLAG-ZCCHC11 uridylyl activities)” value (ZCCHC11; whole cell extracts of HEK293T cells transfected with pHA-FLAG-ZCCHC11, FIG. 15a) is reported as “reduces the uridylation activity”.

For pre-let-7 (in vitro transcribed), the Kd [1] was 2000 nM.

For “recombinant MBP-PUP2 (C. elegans PUP2 fused to maltose binding protein)”, the “polyuridylation of pre-let-7 in vitro (uridylation assay, incorporation of alpha-32P-UTP)” value [2] was “PUP2 was inactive on its own and required the addition of LIN-28 to polyuridylate pre-let-7” and the uridylation assay [2] was “PUP2 is a LIN-28 dependent pre-let-7 polyuridylase in vitro”.

— US20120184457A1, “Modulation of miRNA Activity” (Cambridge Enterprise Limited, priority 2009, published 2012)
